Reference: patent US20230120736A1, “ANTI-CD98 ANTIBODIES AND ANTIBODY DRUG CONJUGATES” (AbbVie Inc., priority 2016, published 2023)
Positions count from the first letter of the chain named.

T1: human CD98 (Homo sapiens, UniProt P08195)
T1 sequence (P08195 1-630 isoform P08195-1): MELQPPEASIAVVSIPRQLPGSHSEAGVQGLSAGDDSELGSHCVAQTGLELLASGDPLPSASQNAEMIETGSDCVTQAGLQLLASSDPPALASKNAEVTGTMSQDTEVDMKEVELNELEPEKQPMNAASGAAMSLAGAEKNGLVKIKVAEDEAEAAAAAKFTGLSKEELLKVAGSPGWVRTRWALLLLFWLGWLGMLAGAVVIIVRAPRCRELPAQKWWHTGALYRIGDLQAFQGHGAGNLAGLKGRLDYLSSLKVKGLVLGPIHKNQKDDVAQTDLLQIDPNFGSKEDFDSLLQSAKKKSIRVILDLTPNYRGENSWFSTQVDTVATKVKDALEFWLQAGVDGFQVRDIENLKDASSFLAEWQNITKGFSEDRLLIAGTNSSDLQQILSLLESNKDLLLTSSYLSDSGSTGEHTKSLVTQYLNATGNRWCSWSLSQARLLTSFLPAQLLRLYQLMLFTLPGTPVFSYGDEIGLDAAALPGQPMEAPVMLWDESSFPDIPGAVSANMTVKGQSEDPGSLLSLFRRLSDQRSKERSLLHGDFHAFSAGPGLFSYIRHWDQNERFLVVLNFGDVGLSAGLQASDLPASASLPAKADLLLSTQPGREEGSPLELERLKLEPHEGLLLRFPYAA

T2: human CD98 ECD (Homo sapiens, UniProt P08195)
T2 construct: Human CD98 ECD with C-terminal His-tag
T2 sequence (P08195 with tags, fused parts or gaps): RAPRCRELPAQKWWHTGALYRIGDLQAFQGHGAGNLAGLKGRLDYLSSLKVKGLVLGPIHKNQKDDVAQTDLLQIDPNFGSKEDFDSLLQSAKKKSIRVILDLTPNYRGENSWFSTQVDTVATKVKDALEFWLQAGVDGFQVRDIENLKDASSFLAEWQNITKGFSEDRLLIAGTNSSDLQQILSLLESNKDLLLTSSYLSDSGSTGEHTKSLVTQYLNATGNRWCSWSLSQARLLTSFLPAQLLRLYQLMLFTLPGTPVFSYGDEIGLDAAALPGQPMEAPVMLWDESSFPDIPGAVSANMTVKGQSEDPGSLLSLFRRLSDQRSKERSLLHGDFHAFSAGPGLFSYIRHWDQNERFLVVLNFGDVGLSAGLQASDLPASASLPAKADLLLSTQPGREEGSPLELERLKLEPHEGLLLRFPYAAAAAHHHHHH

B1: huAb15v1 (antibody, V domains shown)
VH: EVQLVESGGGVVQPGRSLRLSCAASGFTFSDYTMAWVRQAPGKGLEWVATIIYSGRGTYYRDAVKGRFTISRDNSKSTLYLQMNSLRAEDTAVYYCARQSDHTYYYWGYFDYWGQGTMVTVSS
VL: DIVMTQSPDSLAVSLGERATINCKSSQSLLFSGNQKNYLAWYQQKPGQSPKLLIYWASTRQSGVPDRFSGSGSGTDFTLTIRSLQAEDVAIYYCQQYYDVPYTFGQGTKLEIK
B2: huAb15v2 (antibody, V domains shown)
VH: B1 VH with H102D
VL: B1 VL
B3: huAb15v3 (antibody, V domains shown)
VH: B1 VH with H102D
VL: B1 VL with D99G, V100S
B4: huAb15v4 (antibody, V domains shown)
VH: B1 VH with S54T, H102D
VL: B1 VL
B5: huAb15v5 (antibody, V domains shown)
VH: B1 VH with S54T, H102D
VL: B1 VL with D99S, V100S
B6: huAb15v6 (antibody, V domains shown)
VH: B1 VH with S54D, G55A, H102D
VL: B1 VL with D99S, V100S
B7: huAb15v7 (antibody, V domains shown)
VH: B1 VH with S54D, G55A, H102D
VL: B1 VL with D99G, V100S
B8: huAb101: "heavy chain variable sequence of huAb101 is provided in SEQ ID NO: 106"; "light chain variable sequence ... in SEQ ID NO: 107" (antibody, V domains shown)
VH: EVQLVESGGGLVKPGGSLRLSCATSGFTFIDYYMSWVRQAPGKGLEWLGFIRNKANRYTTEYSASVKGRFTISRDNSKSILYLQMNSLKTEDTAVYYCTRDRPAWFVYWGQGTLVTVSS
VL: DIVMTQTPLSLPVTPGEPASISCKSSQSLLYSSNQKNYLAWYLQKPGQSPQLLIYWASTRESGVPDRFSGSGSGTDFTLKISRVEAEDVGVYYCQQYYSYPYTFGGGTKVEIK
B9: huAb103: "heavy chain variable sequence of huAb103 is provided in SEQ ID NO: 109"; "light chain variable sequence ... in SEQ ID NO: 107" (antibody, V domains shown)
VH: B8 VH with N56Y, R57G
VL: B8 VL

Tests used:
human CD98 = molecular target: T1, human CD98; assay: Binding of humanized antibodies to human CD98
[1] = test system: cynomolgus monkey CD98 ECD; assay: Biacore surface plasmon resonance binding kinetics (anti-Fc capture); conditions: cyCD98 ECD
Sequence of cynomolgus monkey CD98 ECD (as listed by the source): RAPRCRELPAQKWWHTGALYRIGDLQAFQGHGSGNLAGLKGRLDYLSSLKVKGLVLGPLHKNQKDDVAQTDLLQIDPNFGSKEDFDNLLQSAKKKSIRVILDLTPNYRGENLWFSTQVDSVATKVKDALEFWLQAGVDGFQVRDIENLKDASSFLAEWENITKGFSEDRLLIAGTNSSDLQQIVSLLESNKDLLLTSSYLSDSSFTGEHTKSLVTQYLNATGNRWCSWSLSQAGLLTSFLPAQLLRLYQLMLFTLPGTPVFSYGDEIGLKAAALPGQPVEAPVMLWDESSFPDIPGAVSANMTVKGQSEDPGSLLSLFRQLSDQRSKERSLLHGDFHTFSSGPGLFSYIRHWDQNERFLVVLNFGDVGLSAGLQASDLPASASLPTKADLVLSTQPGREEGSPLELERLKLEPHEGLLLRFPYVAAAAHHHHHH
Experimental: (§1) The binding kinetics of these purified mouse and rat monoclonal anti-CD98 antibodies for purified recombinant CD98 protein (extracellular domain, ECD) were determined by surface plasmon resonance-based measurements made on Biacore T100/T200 instruments (GE Healthcare, Piscataway, N.J.) at 25° C. using an anti-Fc capture assay approach. Binding kinetic measurements were made in the assay buffer HBS-EP+: 10 mM Hepes, pH 7.4, 150 mM NaCl, 3 mM EDTA, 0.05% Tween 20). For example, approximately 8000 RU of anti-Fc (species specific) polyclonal antibody (Thermo Fisher Scientific Inc., Rockford, Ill.) diluted in 10 mM sodium acetate (pH 4.5) was directly immobilized across a CM5 research grade biosensor chip using a standard amine coupling kit according to manufacturer's instructions and procedures at 25 μg/ml. Unreacted moieties on the biosensor surface were blocked with ethanolamine. The test antibody to be captured as a ligand was diluted in running buffer to ˜0.5 μg/mL and injected over anti-Fc surface at a flow rate of 10 μL/min. CD98 binding and dissociation were observed under a continuous flow rate of 80 μL/min. Human and cynomolgus monkey CD98 ECDs, both with a C-terminal His-tag, are used for this study (Table 3). After each cycle the anti-Fc capture surface was regenerated using 10 mM Glycine-HCl, pH 1.5. During the assay, all measurements were referenced against the capture surface alone (i.e., with no captured test antibody) and buffer-only injections (no antigen) were used for double referencing. For kinetic analysis, rate equations derived from the 1:1 Langmuir binding model were fitted simultaneously, globally and with mass transfer term included to multiple referenced antigen binding curves using Biacore T100/T200 Evaluation software.
(§2) The in vitro binding activities of the recombinant anti-CD98 chimeric mAbs were measured against both recombinant CD98 extracellular domain proteins (ECDs) and CD98-expressing cells. Briefly, binding kinetics of anti-CD98 chimera mAbs for human and cynomolgus CD98 ECDs were determined by surface plasmon resonance-based measurements as described in Example 4. Table 10 reported the association and dissociation rate constants for CD98 binding, ka (M^−1 s^−1) and kd (s^−1), and the equilibrium dissociation constant KD (M) of the interaction between antibodies and the target antigen. Binding of anti-CD98 chimera mAbs for CD98 on cell surface was evaluated by flow cytometry against CHO-K1 cell line stably transfected to express human CD98 and 3T12 cell line stably transfected to express cynomolgus monkey CD98.
(§3) The binding kinetics of the recombinant anti-CD98 chimeric antibodies for purified recombinant CD98 protein (extracellular domain, ECD) were determined by surface plasmon resonance-based measurements, as described in the Example 4.

human CD98 ECD = molecular target: T2, human CD98 ECD; assay: as above; conditions: huCD98 ECD
Experimental: as §1, §2, §3

[2] = Conjugation of anti-CD98 mAbs with Bcl-xL inhibitor synthons (precipitation, DAR, recovery, aggregation)
Experimental: Method A. A solution of BOND-BREAKER tris(2-carboxyethyl)phosphine (TCEP) solution (10 mM, 0.017 mL) was added to a solution of antibody (10 mg/mL, […]) preheated to 37° C. The reaction mixture was kept at 37° C. for 1 hour. The solution of reduced antibody was added to a solution of synthon (3.3 mM, 0.160 mL in DMSO) and gently mixed for 30 minutes. The reaction solution was loaded onto a desalting column (PD10, washed with DPBS 3x before use), followed by DPBS (1.6 mL) and eluted with additional DPBS (3 mL). The purified ADC solution was filtered through a 0.2 micron, low protein-binding 13 mm syringe-filter and stored at 4° C.
Method E. A solution of BOND-BREAKER tris(2-carboxyethyl)phosphine (TCEP) solution (10 mM, 0.017 mL) was added to the solution of antibody (10 mg/mL, 1 mL) at room temperature. The reaction mixture was heated to 37° C. for 75 minutes. The solution of reduced antibody cooled to room temperature and was added to a solution of synthon (10 mM, 0.040 mL in DMSO) followed by addition of boric buffer (0.1 mL, 1M, pH 8). The reaction solution was let to stand for 3 days at room temperature, loaded onto a desalting column (PD10, washed with DPBS 3×5 mL before use), followed by DPBS (1.6 mL) and eluted with additional DPBS (3 mL). The purified ADC solution was filtered through a 0.2 micron, low protein-binding 13 mm syringe-filter and stored at 4° C.

[3] = humanized variants of chAb3 and chAb15
[4] = mAb conjugated with Bcl-xL inhibitor synthon CZ, Method A
[5] = humanized framework engineered antibodies
[6] = conjugation with synthon CZ, Method E
[7] = conjugation with synthon TX, Method E

| Molecule | binding to human CD98 (human CD98; [3]) | ka [1] [M⁻¹ s⁻¹] | kd [1] [s⁻¹] | ka (human CD98 ECD) [M⁻¹ s⁻¹] | kd (human CD98 ECD) [s⁻¹] | Key observation for ADC solution during and after conjugation [2, 4] | DAR by MS [2, 4] | binding to human CD98 (human CD98; [5]) | % Aggregates by SEC [2, 6] [%] | DAR by MS [2, 6] | % Aggregates by SEC [2, 7] [%] | DAR by MS [2, 7] |
| --- | --- | --- | --- | --- | --- | --- | --- | --- | --- | --- | --- | --- |
| B1 | maintained binding | 26000 | 2.6e-05 | 53000 | 2.3e-05 | Precipitated during conjugation; inefficient conjugation | – | – | – | – | – | – |
| B2 | maintained binding | 21000 | 4.8e-05 | 42000 | 4.6e-05 | Precipitated during conjugation; inefficient conjugation | 2.1 | – | – | – | – | – |
| B3 | maintained binding | 18000 | 0.00014 | 44000 | 8.5e-05 | Precipitated during conjugation; inefficient conjugation | 1.2 | – | – | – | – | – |
| B4 | maintained binding | 20000 | 5e-05 | 35000 | 2.8e-05 | Precipitated during conjugation; inefficient conjugation | 1.9 | – | – | – | – | – |
| B5 | maintained binding | 17000 | 0.00018 | 41000 | 0.00013 | Precipitated during conjugation; inefficient conjugation | 1.0 | – | – | – | – | – |
| B6 | maintained binding | 14000 | 0.00049 | 38000 | 0.00026 | Precipitated during conjugation; inefficient conjugation | 2.0 | – | – | – | – | – |
| B7 | maintained binding | 14000 | 0.00043 | 35000 | 0.00021 | Precipitated during conjugation; inefficient conjugation | 2.2 | – | – | – | – | – |
| B8 | – | 30000 | 0.00067 | 290000 | 0.0018 | – | – | maintained binding | 1.8 | 4.5 | 0.3 | 3.5 |
| B9 | – | 31000 | 0.00044 | 180000 | 0.00059 | – | – | maintained binding | 15.9 | 4.4 | 0.9 | 3.8 |
